Data on one molecule can be found in US20160039904A1 (UNITED STATES OF AMERICA AS REPRESENTED BY THE SECRETARY …, published 2016).

Among the targets are HIV-1 gp140Con-s (HIV-1); HIV-1 gp140MS (HIV-1); HIV-1 gp140CH12.0544.2 (HIV-1).

B1: mD1.22 (receptor)
chain: not shown
The Kd is the equilibrium constant for the complex coming apart. High values mean a looser complex, low ones a tighter complex. Consider B1, for which the dissociation constant Kd with HIV-1 gp140Con-s turned out to be 4.4 nM; in the assay with HIV-1 gp140MS it was 0.19 nM; with HIV-1 gp140CH12.0544.2 it was 0.17 nM.
